Test: soluble on expression in E. coli; label from the status in PepcDB or PDB records

| Sequence | soluble on expression in E. coli |
| --- | --- |
| MSNPQPEKVRVVVGDDHPLFREGVVRALSLSGSVNVVGEADDGAAALELIKAHLPDVALLDYRMPGMDGAQVAAAVRSYELPTRVLLISAHDEPAIVYQALQQGAAGFLLKDSTRTEIVKAVLDCAKGRDVVAPSLVGGLAGEIRQRAAPVAPVLSAREREVLNRIACGQSIPAIAAELYVAPSTVKTHVQRLYEKLGVSDRAAAVAEAMRQRLLD | soluble |
| MSNQLAVSDVPTAAWTSQQPRSPRMFDQENGFSQNFQPFMQQNKTVNPCTISDDVREEMMRLRRRENAFKTALCKTFQLTKACSYGEQCKFAHSVEELQLKHQNLGINNPKYKTVLCDNFSTTGHCKYGTKCQFIHRTVEPASLKIQNPLVPRFPSWFAPPSSLAREFLCLNHFEASTSSSTTQKLTSSNLSTSTFRYY | not soluble |
| MSNSAKLIDVITKVALPIGIIASGIQYSMYDVKGGSRGVIFDRINGVKQQVVGEGTHFLVPWLQKAIIYDVRTKPKSIATNTGTKDLQMVSLTLRVLHRPEVLQLPAIYQNLGLDYDERVLPSIGNEVLKSIVAQFDAAELITQREIISQKIRKELSTRANEFGIKLEDVSITHMTFGPEFTKAVEQKQIAQQDAERAKFLVEKAEQERQASVIRAEGEAESAEFISKALAKVGDGLLLIRRLEASKDIAQTLANSSNVVYLPSQHSGGGNSESSGSPNSLLLNIGR | not soluble |
| MSNSITVRARGVNGQESVSLQVGGTTVQTWTLTTAMQDYTASTSLTGEIRVAFTNDATGRDVQVDYIVVNGQTRQAENQSVNTGVWANNQCGGSGNSEWLHCNGYISFGNVS | soluble |
| MSNTVLVSGASGFIALHILSQLLKQDYKVIGTVRSHEKEAKLLRQFQHNPNLTLEIVPDISHPNAFDKVLQKRGREIRYVLHTASPFHYDTTEYEKDLLIPALEGTKNILNSIKKYAADTVERVVVTSSCTAIITLAKMDDPSVVFTEESWNEATWESCQIDGINAYFASKKFAEKAAWEFTKENEDHIKFKLTTVNPSLLFGPQLFDEDVHGHLNTSCEMINGLIHTPVNASVPDFHSIFIDVRDVALAHLYAFQKENTAGKRLVVTNGKFGNQDILDILNEDFPQLRGLIPLGKPGTGDQVIDRGSTTDNSATRKILGFEFRSLHESVHDTAAQILKKENRL | not soluble |
| MSNYAKEERLTGGNVSSVYRSENTVRRELKPGSEKTHKLLQHLENKGFHYAPKFLGVDEKDREILSFIEGEAGNYPLKEYMRSNDVLKEIAKMLRLYHDAVSDFPLLNDWKPMDHTPNNIEVLCHNDFAIYNIIFNNEKPVGIIDFDVAAPGPRLWDIAYTLYTCVPLSRVYYTESGEAVHYDSPQHADRIKERVKLFVQSYGKNMDEDYLGMVLLRLEGLCTYMKRKAQEGDLNFQRMIDEGHLEHYEKDIKFIRDHRAEWS | not soluble |
| MSPIPTTAETRKINEAAELMVNFWMSFACVEKEKEQMASIFEKMNGLFAAPSTTSTASLFGKYEGLFETTEVATEDFNTLWWNYPAQPSFPQLPVFVRSPIDSIKIYGAIQHDFGMSEDESVQYPSPISPSSDSSSETITHVSPGYLLQEVFLQRAVIEEQKKIIDGFHEIQKLNKKLAALHNNFTY | not soluble |
| MSPKARWQFWIDRGGTFTDIVARSPDGKLITHKLLSEDPAHYEDAAMHGIRQILGLSENEPFPSEDVEAIKMGTTVGTNALLERKGERIVLVITKGFGDALRIGYQNRPDIFSQKIELPDQLYERVIEVSGRYSADGEEIVPLELESAKKELEEAYKAGIRSAAVILMHSYRYPEHELMLGRLATEIG | not soluble |
| MSPLSGSLAPLNMKGLVKFQDVSFAYPNHPNVQVLQGLTFTLYPGKVTALVGPNGSGKSTVAALLQNLYQPTGGKVLLDGEPLVQYDHHYLHTQVAAVGQEPLLFGRSFRENIAYGLTRTPTMEEITAVAMESGAHDFISGFPQGYDTEVGETGNQLSGGQRQAVALARALIRKPRLLILDQATSALDAGNQLRVQRLLYESPEWASRTVLLITHQLSLAERAHHILFLKEGSVCEQGTHLQLMERGGCYRSMVEALAAPSDAAAHHHHHH | soluble |
| MSPLTQFKFFLWFFSHFKVALIGYLKPKLIQLTDNEIVVRLPLTRRSRNHLHSMYFGALAVGADIAGGLHGFYHAKQAKCKVSLAFKSFQAQFLRRPESDVYFICTEGDVVKKMIEESKKSGERINKPIHIKAYINYLTHPEEIADFILELSLKVIKLEHHHHHH | soluble |
| MSPMRIGLVCIRGSVPAFENFGFLPTDIVGSNGLVNGSRAHRVLDGIIIPGGSIVESGSLSPELAFEIRRMASDGKFVLGICSGFQALAERTDIGRKSPCPVYREGLGLLNVTFHPMISNDRVEATITGESFLTSGMSGERITGFHCHTYGEIRGDAPEIMKSRIVRADYHERPGEILSGVCSDDGNVAGTMVHGCLDENQTLVSNILKFLDADETARERILEANRKLREALRSELGISTGIRVMDRGGTRGTPPAIMIASTGSDSGKTFILTGLAGALRRRGLRVGVIKVGPDVRDIVPALYLIKEPMEEHSSIRIGRLGWMELRDVLESVRGRYDIILIEGVMSILTGLLNDITPYSGAEIALAAGIPLIMVAGCSKGGIESAVVDLDAHISVLEGLGLEVSCGILNRVYDMDIFERASGGRYLAIPRVEMSERGGTPEVEIKLEDFCLKAMETVEEHLDVDTLISFAKKPEFRGYMGPEEIKKVFSPLEHHHHHH | not soluble |
| MSPNHVDHLVLPVAQIDIATARLANLGFTVAPLAVHPFGTANACVFLADGTYLEPLAVNDPAKYGESANRGDVFTGRDRAFRESCGPEGFSALVARSGDAFVDHERFVAAGLSAGDLFEFSRPVQMPDGSRSEAAFRLAFAASGAAADFFLFGCQRLKALPGDRTELERHANAVTGLFEIVLFSGGDAKAARLIETVFGCKSAMSPGGDMVFATGNARIRLTEKPAVADLDLNTSNRGDGGLRGAGIVFSVTDLAVTAAVLAANGVSSMEAGGRLVVPAAPGQGVAFAFEEI | not soluble |
| MSPVAAMKRKNGVALWRQIADRIRGEIAAGDHDETGMLPPEMTLAEKFGVNRHTVRSAIAALASEGILEPMQGRGTMIARKERLSFPISLRTRFTAGIGDQVKEMEALLLSHTTEPASADLAARLQLPSGAPLVRLETLRKADTRPVSRSTTWFPADRFAGIGEAYRKSGSITAAFKALGVADYVRISTVISAIHADTQDLADLELSPGAILLVTQALNADMDGVPVQYAVSRFSADTVEFTVEN | not soluble |
| MSQANLSETLFKPRFKHPETSTLVRRFSAGKPQAMQSALSGNHVDHWYRLINRLMWIWRGVTPQEILDVQARIVMSEAERTDPELFDTVIGYRGGNWIFEWAKEAMQWQQKAGQEADPLLSGRHWLHASNLYSIAAYPHIKGDELAEQAQALANRAYEEAAQRLPGSLRELEFTIPGGSPITGFLHMPKGEGPFPTVLMCGGLDSLQTDYYNLYENYFSPLGIAMLTIDMPSIGFSSKWTLNQDTSLLHQHALRHLENVPWIDHTRVAAFGFRFGANIAVRLGYLEPQRLKAVACLGPVVHGLLVDPLHQGRVPEMYLDVLASRLGMHDASDEALRVELNRYSLKTQGLLGRRCPTPMLSGFWKDDPFSPEEESRLITSSSADGKLLEIPFNPVYRNFDHALRQIARWINHRFG | not soluble |
| MSQSKGKKRNPGLKIPKEAFEQPQTSSTPPRDLDSKACISIGNQNFEVKADDLEPIMELGRGAYGVVEKMRHVPSGQIMAVKRIRATVNSQEQKRLLMDLDISMRTVDCPFTVTFYGALFREGDVWICMELMDTSLDKFYKQVIDKGQTIPEDILGKIAVSIVKALEHLHSKLSVIHRDVKPSNVLINALGQVKMCDFGISGYLVDSVAKTIDAGCKPYMAPERINPELNQKGYSVKSDIWSLGITMIELAILRFPYDSWGTPFQQLKQVVEEPSPQLPADKFSAEFVDFTSQCLKKNSKERPTYPELMQHPFFTLHESKGTDVASFVKLILGDLEHHHHHH | soluble |
| MSQVQSGILPEHCRAAIWIEANVKGEVDALRAASKTFADKLATFEAKFPDAHLGAVVAFGNNTWRALSGGVGAEELKDFPGYGKGLAPTTQFDVLIHILSLRHDVNFSVAQAAMEAFGDCIEVKEEIHGFRWVEERDLSGFVDGTENPAGEETRREVAVIKDGVDAGGSYVFVQRWEHNLKQLNRMSVHDQEMVIGRTKEANEEIDGDERPETSHLTRVDLKEDGKGLKIVRQSLPYGTASGTHGLYFCAYCARLHNIEQQLLSMFGDTDGKRDAMLRFTKPVTGGYYFAPSLDKLMAL | soluble |
| MSRDRPNKIKLPHRPGYTTYLQTGDLTSTDGEEGVYSLKLITGYTREEPEILDDVLDPSGGSSSSQRSNDPLLPASTNHPEIFDDVLDPSGGSSSSQRSNDPLLPASTFKLSCVDCKKQYNVSKSMKSQARKRKIRQDMEAEDDMLDGTGLHRMALVNVNTTMPQEAKALEELSKKLVISATLTGYDSVPINTPSKSPQVLYFQVKTHAEFDLVQEKMDKNFISQLEIESLVKSNEPFLFPYGRRRHVFTSILLATYLSLCSDEANNIDDWKDLLRNNAIIKKAVEHSDTMQKMKKYLSVDGRTMLNFYKETL | not soluble |
| MSREDELLEKLDECENATAFLQVSNKIINLKLKALLPSVFVQDDLVKEYAVDPLLREDGPLVTTDVVSKLMFAMGKISLQTYADIGLYDQVLEYVVTQPEKIAFTDDVIYDFIKNQAVLSSQQDCFYLESINQLKFSSFESFSQMRYESLIKTVLKLSCEMLIERIEEEINQ | soluble |
| MSRFSITYKHDFYGGVEGEVTGGSALLCCPQEDIKSFLSEPVYSRLCASAWALTIECPSDPRTPSGTPGPLGTVPWRWGSLGMGGPLLPTAPTPRERERRGGQPAQRWSAEEGQEGSADGEAEATQELILAVVQEGAEGQCQGQGRKLLLQRGAHDPVTVHRAFKKEVGLGQVQLIPKGGTGVLHPGAGLKLHTHLQLVTGFVVIRRMHACLAQRYCSQPVVQCVFPS | not soluble |
| MSRGLLEACIEFIRETPAGDALRIVAYEFTFKRILLELKAALERGVDVRIVYHATTANEKAIADAKLPENSKGVQILFKRTRPQTPHNKFIVRLKKGKTPVSVWTGSTNFTPSGFLGQTNVGHKVTDGDIAKIYLQLWEGLKADPDDFDATQLEHHHHHH | not soluble |
| MSRGQIIHSGHFMCSNPHDDLVQDEDEEDVEVDVVEDDDKSMEASSSVHHKNKALDEKPVTFYKFGVGKTQSIAIDVSLNKLNKCIKVAYNKMTTPKWKDFKGLRLHWKQRVRLNNVIWRAYYIEFRKKQPEKPKKPFCYFAVPDDDTTHQKIEGSIVEGMYWKRKMEGVCAQYKRWRIRSKHNLVTDKGGMVATCSSTSVSSMTGELKRKRKHTVPKETIESKLRSYEPPVKLQRSQTPKHTISDEFAWDFDDLDNVFTDDFLNSLSEPYMFPDPRDVYSGNNADIMQPGLLPLQPTIEDIMMSLGDDMPDSPPFHNDRDTMRTPTNDQPSISAQQIPQMRRSASSSASLHQMQVAQAQAQSISQISQPSQQLQHQIQIQQPVAARPHEFMASSIMMDYRLMPTRQSSAITSQMLMLSQSASTLSSQPQYATSTHYSTNNSFLPIRNTMTNQHHLGHTSQHSPWNKQQQSNFLVSLPHQSHVERILNNQPPLVPPPSRSNLLPTQNDPYLPQFLQSTQPTPQPQSHDPMMAPSRSWWLDSPLTASVQSPLSVATPLPLANQTGPQTPLGQLIGSADNGFLFGGNNTPGGFKMSGTTSGVPTLSQRLEQPPISRTSTIFGNVENKPERIFTSLTSQNTPTPSPLDISSLSRLRTSSLNESWKMSHIVEGSPTYQAFAASVTTKPSILESPSTSGDISGPASVPVQASQHPPKIITPPSASSKRKEQEAAMAPLVNRQQSCDVNLLNGKMAVKVEEKSGRHYLPTTPTELKEVTKEEPLLMSAPSSVKSMRRQAPDSTLHPEERKRILHLHAEQNRRSALKDGFDQLMDIIPDLYSGGVKPTNAVVLAKSADHIRRLQAEKWDKTQKIDEAKAKIEKLNQKITSLQSNLPQSSAPSSSSQVDSKTSLETFFDRYVKEGAKKNWRFWVVSYLAEKLKFF | not soluble |

— the DeepSol protein solubility set
